Reference: publication PMC2447174, “A Cytoplasmic Domain Mutation in ClC-Kb Affects Long-Distance Communication Across the Membrane” (PLoS ONE, 2008)
Positions count from the first letter of the chain named. Numbers in names are those of the source.

B1: ClC-Kb C-terminal domain (domain or fragment, human, UniProt P51801 538-684, looked up)
chain: RNIGSHRVRVEHFMNHSITTLAKDMPLEEVVKVVTSTDVAKYPLVESTESQILVGIVRRAQLVQALKAEPPSWAPGHQQCLQDILAAGCPTEPVTLKLSPETSLHEAHNLFELLNLHSLFVTSRGRAVGCVSWVEMKKAISNLTNPP
notes: ClC-Kb chloride channel, human, C-terminal cytoplasmic domain, amino acids 538-684; read here as KbC following MBP; MBP was removed with Factor Xa and washed away on the cation-exchange column; also called ClC-Kb cytoplasmic domain; ClC-Kb C-terminal cytoplasmic domain; source: E. coli, purified (amylose column, Factor Xa digestion, cation exchange); not shown: MBP, N-terminal, cleaved
B2: ClC-Kb C-terminal domain double mutant L603C-H645C (domain or fragment, human, UniProt P51801 538-684, looked up)
chain: B1 chain with L66C, H108C
notes: ClC-Kb chloride channel, human, C-terminal cytoplasmic domain, amino acids 538-684, L603C and H645C; also called 603-645 cysteine double mutant; source: E. coli, purified (amylose column, Factor Xa digestion, cation exchange); not shown: MBP, N-terminal, cleaved
B3: ClC-Kb C-terminal domain double mutant K604C-A644C (domain or fragment, human, UniProt P51801 538-684, looked up)
chain: B1 chain with K67C, A107C
notes: ClC-Kb chloride channel, human, C-terminal cytoplasmic domain, amino acids 538-684, K604C and A644C; also called 604-644 cysteine double mutant; source: E. coli, purified (amylose column, Factor Xa digestion, cation exchange); not shown: MBP, N-terminal, cleaved
B4: ClC-Kb C-terminal domain with the L650C mutation (domain or fragment, human, UniProt P51801 538-684, looked up)
chain: B1 chain with L113C
notes: ClC-Kb chloride channel, human, C-terminal cytoplasmic domain, amino acids 538-684, L650C; also called ClC-Kb-L650C; L650C mutant; source: E. coli, purified (amylose column, Factor Xa digestion, cation exchange); not shown: MBP, N-terminal, cleaved

How the values were obtained:
[1] = target: the molecule itself; assay: SEC-MALS; Shodex PROTEIN KW-802.5 column, 200 mM NaCl, 20 mM Tris-Cl pH 7.5, protein at 1 mg/mL, room temperature (23°C); self-association, dimer
[2] = target: the molecule itself; assay: SEC-MALS; data not shown; 'monodispersed dimers, as observed with wild-type'; method taken from the wild-type experiment
[3] = target: the molecule itself; assay: cross-linking; spontaneous disulfide cross-linking of introduced cysteines in purified KbC in TBS7.5 (200 mM NaCl, 10 mM Tris pH 7.5, 5 mM ß-mercaptoethanol); SDS-PAGE in reducing (250 mM ß-mercaptoethanol) and oxidizing conditions

| Protein | stoichiometry N [2] | other results |
| --- | --- | --- |
| B1 | – | stoichiometry N [1]: 2 |
| B2 | 2 | – |
| B3 | 2 | – |
| B4 | – | binding result [3]: binds |
